Assay [1] concerns the target extracellular domain of human β-Klotho (sKLB) (human) (UniProt Q86Z14). Description: MST competition; GST-FGF21CT variant titrated into a constant sKLB/fl-FGF21 mixture.
In assay [2] the target is T1, extracellular domain of human β-Klotho (sKLB) (human, UniProt Q86Z14 53-983).
T1 construct: Made in HEK293-EBNA cells; also called WT sKLB; not shown: remnant of the TEV protease cleavage site / four-Gly linker left after the Fc tag was cut off
T1 sequence: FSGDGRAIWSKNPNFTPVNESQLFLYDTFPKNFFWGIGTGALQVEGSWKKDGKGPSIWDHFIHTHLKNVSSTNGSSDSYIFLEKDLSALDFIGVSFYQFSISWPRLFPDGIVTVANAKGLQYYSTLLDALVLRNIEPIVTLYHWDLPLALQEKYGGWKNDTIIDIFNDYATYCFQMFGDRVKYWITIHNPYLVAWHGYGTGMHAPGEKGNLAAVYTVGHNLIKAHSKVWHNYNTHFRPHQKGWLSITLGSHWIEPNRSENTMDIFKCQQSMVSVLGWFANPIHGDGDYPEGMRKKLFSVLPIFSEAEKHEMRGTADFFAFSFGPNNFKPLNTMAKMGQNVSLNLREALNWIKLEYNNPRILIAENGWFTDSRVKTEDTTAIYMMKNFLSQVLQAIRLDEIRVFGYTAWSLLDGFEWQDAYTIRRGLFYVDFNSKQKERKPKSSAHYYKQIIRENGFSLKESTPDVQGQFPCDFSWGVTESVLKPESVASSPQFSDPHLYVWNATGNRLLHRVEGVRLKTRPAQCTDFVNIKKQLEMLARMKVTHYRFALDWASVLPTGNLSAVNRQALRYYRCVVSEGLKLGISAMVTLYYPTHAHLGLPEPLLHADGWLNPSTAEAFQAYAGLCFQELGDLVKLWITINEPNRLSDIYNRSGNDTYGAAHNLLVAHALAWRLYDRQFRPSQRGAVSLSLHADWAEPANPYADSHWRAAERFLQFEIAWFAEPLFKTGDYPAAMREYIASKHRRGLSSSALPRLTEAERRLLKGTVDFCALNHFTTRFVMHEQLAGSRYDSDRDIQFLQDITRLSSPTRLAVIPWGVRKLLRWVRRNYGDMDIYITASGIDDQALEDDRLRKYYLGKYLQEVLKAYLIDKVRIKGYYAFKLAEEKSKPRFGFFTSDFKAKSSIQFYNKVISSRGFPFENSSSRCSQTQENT
Description: quantitative binding studies, method not given.

The target in assay [3] is T1, extracellular domain of human β-Klotho …. The assay can be described thus: SPR and/or MST.
For assay [4] the target is unchanged. The assay can be described thus: MST; fluorescently labeled FGFR1cD2D3.
The target is the same in assay [5]. Description: MST; 35 nM fluorescently labeled FGF21, sKLB titrated 0.03-1000 nM. How it is done: (§1) All MST measurements were performed using the Monolith NT.115Pico instrument (NanoTemper Technologies) with Monolith NT.115 MST Premium Coated Capillaries. Purified FGF21 was fluorescently labeled using the Monolith Protein Labeling Kit RED-NHS (NanoTemper Technologies) according to the instruction provided by the manufacturer. […] The thermophoretic movements of fl-FGF21 in each samples were monitored (LED 20%, IR laser 20%,) and the normalized fluorescence intensities (FNorm), defined as Fₕₒₜ/Fcold (where Fcold and Fₕₒₜ refer to the fluorescence intensities averaged over […] before IR laser is on and 29 s after IR laser is on, respectively), for each samples were plotted against the concentrations of sKLB. For the competition assays, the thermophoresis of fl-FGF21 was measured for samples where the concentration of fl-FGF21 and sKLB mixture was kept constant with the concentrations of GST-FGF21CT varying from 2.1 nM to 35000 nM. All the data were analyzed with the MO Affinity Analysis software (NanoTemper Technologies) provided by the manufacturer.
The affinity of FGF21 for sKLB was measured using MicroScale Thermophoresis or MST (Seidel et al., 2013, methods 59:301-315), where the thermophoretic movement of fluorescently-labeled FGF21 (fl-FGF21) in solution is monitored upon sKLB binding.

Assay [6] addresses T2, β-Klotho lacking D2 (human, UniProt Q86Z14 53-507).
T2 sequence: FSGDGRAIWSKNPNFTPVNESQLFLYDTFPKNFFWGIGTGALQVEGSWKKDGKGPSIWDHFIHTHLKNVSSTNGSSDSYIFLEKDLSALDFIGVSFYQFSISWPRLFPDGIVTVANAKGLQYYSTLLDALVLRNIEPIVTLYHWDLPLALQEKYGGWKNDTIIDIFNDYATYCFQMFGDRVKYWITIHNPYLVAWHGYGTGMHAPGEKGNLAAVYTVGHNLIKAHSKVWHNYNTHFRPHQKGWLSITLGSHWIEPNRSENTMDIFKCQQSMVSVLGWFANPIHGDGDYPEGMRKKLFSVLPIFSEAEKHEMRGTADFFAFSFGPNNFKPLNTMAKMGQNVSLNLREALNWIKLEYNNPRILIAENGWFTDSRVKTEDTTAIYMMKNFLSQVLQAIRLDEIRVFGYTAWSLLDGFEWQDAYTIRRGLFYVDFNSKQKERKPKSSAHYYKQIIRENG
The assay can be described thus: SPR and/or MST.

Assay [7] addresses T1, extracellular domain of human β-Klotho …. The assay can be described thus: MST. How it is done: The thermophoretic movements of fl-FGF21 in each samples were monitored (LED 20%, IR laser 20%,) and the normalized fluorescence intensities (FNorm), defined as Fₕₒₜ/Fcold (where Fcold and Fₕₒₜ refer to the fluorescence intensities averaged over […] before IR laser is on and 29 s after IR laser is on, respectively), for each samples were plotted against the concentrations of sKLB. For the competition assays, the thermophoresis of fl-FGF21 was measured for samples where the concentration of fl-FGF21 and sKLB mixture was kept constant with the concentrations of GST-FGF21CT varying from 2.1 nM to 35000 nM. All the data were analyzed with the MO Affinity Analysis software (NanoTemper Technologies) provided by the manufacturer.
As endocrine FGFs play important roles in the control of metabolic processes, a variety of approaches have been utilized to develop novel therapeutics that retain (and exceed in potency) the beneficial stimulatory responses of FGF19 and or FGF21 while minimizing the side effects caused by these two hormones. […] In certain non-limiting embodiments, potency of FGF21 can be enhanced by introducing mutations into its C-terminal tail that strengthen interactions with β-Klotho. An L194F mutation was introduced to increase hydrophobic interactions with neighboring amino acids in site 1 of β-Klotho. […]

The target in assay [8] is T3, full-length human β-Klotho (KLB), C-terminal HA-tagged, on L6 cells (human, UniProt Q86Z14 53-1044).
T3 sequence: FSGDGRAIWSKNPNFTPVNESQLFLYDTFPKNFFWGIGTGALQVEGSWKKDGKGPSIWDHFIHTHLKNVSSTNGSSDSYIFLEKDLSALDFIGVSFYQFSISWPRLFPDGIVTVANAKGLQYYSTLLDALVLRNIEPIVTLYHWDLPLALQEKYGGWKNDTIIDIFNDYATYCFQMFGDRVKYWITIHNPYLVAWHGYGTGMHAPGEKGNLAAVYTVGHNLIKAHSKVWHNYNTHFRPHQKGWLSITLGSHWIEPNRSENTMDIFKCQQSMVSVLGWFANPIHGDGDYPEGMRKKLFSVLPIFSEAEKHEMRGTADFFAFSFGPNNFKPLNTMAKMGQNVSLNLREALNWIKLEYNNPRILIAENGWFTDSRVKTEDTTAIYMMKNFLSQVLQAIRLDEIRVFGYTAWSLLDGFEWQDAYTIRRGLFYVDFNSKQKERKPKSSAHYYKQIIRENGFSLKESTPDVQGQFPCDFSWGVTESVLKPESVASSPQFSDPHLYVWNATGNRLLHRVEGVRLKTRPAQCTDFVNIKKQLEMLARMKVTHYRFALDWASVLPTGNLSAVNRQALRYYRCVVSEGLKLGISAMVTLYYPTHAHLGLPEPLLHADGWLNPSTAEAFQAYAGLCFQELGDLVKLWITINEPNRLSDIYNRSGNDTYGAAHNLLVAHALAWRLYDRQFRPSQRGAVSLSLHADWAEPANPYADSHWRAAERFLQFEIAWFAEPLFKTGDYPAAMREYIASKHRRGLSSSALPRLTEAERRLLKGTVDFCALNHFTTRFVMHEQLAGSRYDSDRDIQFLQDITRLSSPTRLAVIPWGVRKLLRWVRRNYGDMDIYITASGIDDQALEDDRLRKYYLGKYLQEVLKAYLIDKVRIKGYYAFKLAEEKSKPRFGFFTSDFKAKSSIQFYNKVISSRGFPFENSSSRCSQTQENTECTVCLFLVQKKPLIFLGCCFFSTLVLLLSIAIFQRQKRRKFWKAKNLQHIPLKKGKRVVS
The assay can be described thus: cell-based or functional assay.

Assay [9] addresses T1, extracellular domain of human β-Klotho …. Description: MST competition: GST-FGF21CT titrated into a constant mixture of sKLB and fluorescently labelled FGF21 (competitor: fl-FGF21). How it is done:
as §1
(§2) To measure binding of the C-terminal fragment of FGF21 (FGF21CT) to sKLB, an MST-based competition assay was used, in which GST-fused FGF21CT (GST-FGF21CT) was titrated into a constant sKLB/fl-FGF21 mixture (FIG. 6C).

Assay [10] shares this target. The description is as above. How it is done: as §1, §2
This is another data set of the same source.

Assay [11] has the same target. Description: SPR; GST-FGF21CT immobilized on a sensor chip using anti-GST, sKLB in solution.
Assay [12] shares this target. Description: MST competition; GST-FGF21CT titrated into a constant sKLB/fl-FGF21 mixture. As to the method: as §1, §2

The values below come from patent publication US20200131257A1 (YALE UNIVERSITY, published 2020).

“And” between values parts separate entries of the source, which are not always exact repeats. Identical values can stand only once. Like-named read-outs stand apart in the source and are kept apart here. No end group written: not given here. Where only a bound is given, the exact number is not on record here.

What is called IC50 is the midpoint of a concentration-inhibition curve. “GST-FGF21CT S206A (from UniProt Q9NSA1 169-209)”: the IC50 in assay [1] is 5.56 µM.

In the case of “GST-FGF21CT S204A (from UniProt Q9NSA1 169-209)”, the IC50 in [1] was determined as 5.99 µM.

Regarding “GST-FGF21CT D192A (from UniProt Q9NSA1 169-209)”, the IC50 in [1] is 15.9 µM.

With “GST-FGF21CT P193A (from UniProt Q9NSA1 169-209)”, in [1], the half-maximal inhibitory concentration (IC50) came to 7.16 µM.

With “GST-FGF21CT Y207A (from UniProt Q9NSA1 169-209)”, the half-inhibitory concentration (IC50) in assay [1] stood at 6.63 µM.

In general, Kd refers to the constant that tells how readily two partners part at equilibrium. A higher Kd goes with lower affinity. Consider LPEPPGILAPQPPDVGSSDPLSMVGGSQGRSPSYES (also called FGF21CT peptide) [FGF21CT synthetic peptide (C-terminal region of FGF21, residues 174-209 with P199G and A208E)], for which the dissociation constant Kd in [2] turned out to be 43 nM.

B1: FGF21 lacking the 10 C-terminal amino acids (ligand)
chain: HPIPDSSPLLQFGGQVRQRYLYTDDAQQTEAHLEIREDGTVGGAADQSPESLLQLKALKPGVIQILGVKTSRFLCQRPDGALYGSLHFDPEACSFRELLLEDGYNVYQSEAHGLPLHLPGNKSPHRDPAPRGPARFLPLPGLPPALPEPPGILAPQPPDVGSSDPLSMVGP
Consider B1, for which, in assay [3], the binding result was “no binding”.

B2: FGFR1cD2D3 (ligand binding region of FGFR1c) (receptor, UniProt P11362 142-365, looked up)
chain: DNTKPNRMPVAPYWTSPEKMEKKLHAVPAAKTVKFKCPSSGTPNPTLRWLKNGKEFKPDHRIGGYKVRYATWSIIMDSVVPSDKGNYTCIVENEYGSINHTYQLDVVERSPHRPILQAGLPANKTVALGSNVEFMCKVYSDPQPHIQWLKHIEVNGSKIGPDNLPYVQILKTAGVNTTDKEMEVLHLRNVSFEDAGEYTCLAGNSIGLSHHSAWLTVLEALEER
modifications: fluorescently labeled in the MST assay
notes: domain: D2D3; the c splice form of FGFR1; also called FGFR1cD2D3 extracellular region
Take B2: in [4], the Kd was 940 nM and ~1000 nM.

B3: recombinant human FGF21 (amino acids 29-209 with L126R, P199G and A208E, N-terminal His6 tag) (ligand)
chain: HPIPDSSPLLQFGGQVRQRYLYTDDAQQTEAHLEIREDGTVGGAADQSPESLLQLKALKPGVIQILGVKTSRFLCQRPDGALYGSLHFDPEACSFRERLLEDGYNVYQSEAHGLPLHLPGNKSPHRDPAPRGPARFLPLPGLPPALPEPPGILAPQPPDVGSSDPLSMVGGSQGRSPSYES
modifications: fluorescently labeled with Monolith Protein Labeling Kit RED-NHS (fl-FGF21) in the MST assays
notes: Expressed in E. coli; also called fl-FGF21; wild-type FGF21; not shown: N-terminal His6 tag from the pET28a vector
As for B3, the Kd in [5] came to 43.5 nM. Further, in assay [6], the binding result is given as “no binding”.

B4: R203W/L194F-mutated FGF21 (FGF21WF) (ligand)
chain: HPIPDSSPLLQFGGQVRQRYLYTDDAQQTEAHLEIREDGTVGGAADQSPESLLQLKALKPGVIQILGVKTSRFLCQRPDGALYGSLHFDPEACSFRELLLEDGYNVYQSEAHGLPLHLPGNKSPHRDPAPRGPARFLPLPGLPPALPEPPGILAPQPPDVGSSDPFSMVGPSQGWSPSYAS
notes: also called FGF21 carrying a double L194F/R203W mutations
On to B4, for which, in assay [7], binding was put at a Kd of 3.4 nM and the “fold tighter binding than wild-type FGF21” value was more than 10 fold. In [8], the “stimulation of FGFR1c tyrosine phosphorylation in L6 cells coexpressing β-Klotho and FGFR1c” value was approximately 10 fold.

B5: GST-fused FGF21CT (GST-FGF21CT), wild type (other)
chain: GLPPALPEPPGILAPQPPDVGSSDPLSMVGPSQGRSPSYAS
modifications: not fully specified (N-terminus); also: fused to GST tag, letters not given here
notes: also called WT; not shown: glutathione S-transferase tag and linker encoded by the pGEX-4T-1 vector (GE Healthcare)
Turning to B5, the “IC50 (read off the curve)” value in assay [9] and in assay [10] was approximately 700 nM throughout. The equilibrium dissociation constant (Kd) in [11] stood at 253 nM. In addition, the half-maximal inhibitory concentration (IC50) in assay [12] worked out at 704 nM.
